Data reported in paper PMC8878318, “DogCatcher allows loop-friendly protein-protein ligation” (Cell Chemical Biology, 2022).

Assays:
Gre2p = target: T1, Gre2p (Saccharomyces cerevisiae, UniProt Q12068); assay: NADPH oxidation, absorbance at […] nm; assay type: biochemical; conditions: 1.5 mM isovaleraldehyde; 0.25 mM NADPH; 100 mM potassium phosphate pH 7.4; 25 °C
T1 construct: gene GRE2; wild-type Gre2p without loop insertion, pET28-Gre2p synthetic codon-optimised gene, expressed in E. coli BL21 DE3 RIPL, Ni-NTA purified
T1 sequence (Q12068 1-342): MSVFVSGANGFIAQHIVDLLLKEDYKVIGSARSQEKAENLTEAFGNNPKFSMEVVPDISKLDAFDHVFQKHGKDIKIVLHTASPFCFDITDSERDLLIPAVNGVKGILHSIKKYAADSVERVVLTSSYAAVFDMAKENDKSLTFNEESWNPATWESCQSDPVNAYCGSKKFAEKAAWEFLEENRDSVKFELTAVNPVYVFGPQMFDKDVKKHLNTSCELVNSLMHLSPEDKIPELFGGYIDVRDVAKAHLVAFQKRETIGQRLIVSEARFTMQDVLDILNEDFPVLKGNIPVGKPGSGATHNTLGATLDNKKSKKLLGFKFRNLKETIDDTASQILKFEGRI

[1] = target: Gre2p-SpyTag003 Loop B (Saccharomyces cerevisiae) (UniProt Q12068); assay: isopeptide bond formation followed by SDS-PAGE with Coomassie densitometry; 5 μM of each protein in solution, PBS pH 7.5 (pH 7.4 in p-0004), 25°C; second-order rate constant from 1/[Catcher] against time
sfGFP-SpyTag003 Loop A = assay: as above
[2] = target: sfGFP-DogTag Loop A (Streptococcus pneumoniae TIGR4); assay: as above
[3] = target: Gre2p-DogTag Loop B (Saccharomyces cerevisiae | Streptococcus pneumoniae TIGR4) (UniProt Q12068); assay: as above
[4] = target: AviTag-DogTag-MBP (Streptococcus pneumoniae TIGR4); assay: as above
[5] = target: HaloTag7SS-DogTag (Streptococcus pneumoniae TIGR4); assay: isopeptide bond formation followed by SDS-PAGE with Coomassie densitometry; reaction toward completion: 10 or 20 μM DogCatcher with 10 or 20 μM HaloTag7SS-DogTag, PBS pH 7.5, 25°C, 200 min
[6] = target: AviTag-R2Tag-MBP (Streptococcus pneumoniae TIGR4); assay: isopeptide bond formation followed by SDS-PAGE with Coomassie densitometry; 5 μM of each protein in solution, PBS pH 7.5 (pH 7.4 in p-0004), 25°C; second-order rate constant from 1/[Catcher] against time

Molecule: NC(=O)C1=CN([C@@H]2O[C@H](COP(=O)(O)OP(=O)(O)OC[C@H]3O[C@@H](n4cnc5c(N)ncnc54)[C@H](OP(=O)(O)O)[C@@H]3O)[C@@H](O)[C@H]2O)C=CC1 [NADPH]
- NADPH oxidation, absorbance at 340 nm (Gre2p): Reduction of isovaleraldehyde to isoamyl alcohol by Gre2p is nicotinamide adenine dinucleotide phosphate (NADPH) dependent

Molecule: SpyCatcher003 (designed binder)
- second-order rate constant of covalent reaction [1]: 156 M⁻¹ s⁻¹
- second-order rate constant of covalent reaction (sfGFP-SpyTag003 Loop A): 87 M⁻¹ s⁻¹

Molecule: DogCatcher (designed binder)
- second-order rate constant of covalent reaction [2]: 1000 M⁻¹ s⁻¹
- second-order rate constant of covalent reaction [3]: 850 M⁻¹ s⁻¹
- second-order rate constant of covalent reaction [4]: 760 M⁻¹ s⁻¹
- percent of DogCatcher reacted (2-fold excess of HaloTag7SS-DogTag) [5]: 98%
- percent of HaloTag7SS-DogTag reacted (2-fold excess of DogCatcher) [5]: 98%

Molecule: R2Catcher (domain or fragment)
- second-order rate constant of covalent reaction [4]: 30 M⁻¹ s⁻¹
- second-order rate constant of covalent reaction [6]: 3 M⁻¹ s⁻¹
